The target in the experiment is T1, human Granzyme B (human, UniProt P10144 21-247).
T1 construct: Captured on a Series S Streptavidin chip for SPR; also called hGranzyme B; GzmB
The experiment is described as follows: SPR, Biacore 8k+, hGranzyme B captured on SA chip, single cycle kinetics, 1:1 model. Here is the method: The kinetics of test peptide binding to human Granzyme B (hGranzyme B) was determined by SPR. All experiments were performed at 25° C. using the Biacore 8k+ instrument (Cytiva, Marlborough, MA). The Biacore 8k+ Insight Evaluation Software Version 3.0 was used to fit the data with a 1:1 binding model to determine the association rate constant kₐ (M⁻¹s⁻¹, where “M” ~equals molar and “s” ~equals seconds) and the dissociation rate constant kd (s⁻¹). These rate constants were used to calculate the equilibrium dissociation constant. KD (M)=kd/kₐ.
To measure the binding kinetics of peptides of interest, surfaces were prepared by a capture method to a Series S Streptavidin (SA) chip using a 1×HBS-EP+ running buffer (Cytiva). hGranzyme B was diluted to 10 μg/mL in IX HBS-EP+ and flowed over spot 2 of each flow cell on the chip at a flow rate of 10 ul/min for 20 s to achieve a level of capture of ~1100 RU. An unmodified spot 1 of each flow cell was used as a matrix binding control or reference surface. Binding kinetics were measured using single cycle kinetics at 25° C. by injecting 5 concentrations with 3-fold serial dilutions of test peptides from 0.01 μM to 1 μM. Compound dilutions were performed manually in a running buffer containing 1×HBS-EP+(Cytiva), and a final concentration of 2% DMSO. The interaction analyses over hGranzyme B, were performed using a 120 s association time and a 900 s dissociation time. All experiments were conducted at a flow rate of 50 μL/min with a data collection rate of 10 Hz.
Peptide dilution series included 2 zero concentration points (no compound) which were averaged and subtracted from the peptide concentration injection as DMSO control responses. Binding data acquired from the reference surface (matrix binding control) were subtracted from the binding data for hGranzyme B surface on the chip to determine specific binding. Next, the association phase data were solvent corrected to account for any signal fluctuation throughout the experiment due to subtle DMSO concentration differences. Corrected response data were analyzed using the Biacore 8k+ Evaluation Software Version 3.0 according to the manufacturer. SPR data for representative compounds of the disclosure are found in Table 8.
On the technique in general: Surface plasmon resonance follows binding to a sensor surface in real time, without labels.

Bridge positions count the residues as written; N and C are the ends. Square brackets hold non-standard residues; d marks the D form. NEtAla = CCN[C@@H](C)C(=O)O; NMeA = CN[C@@H](C)C(=O)O

The source of these data is patent US20260207798A1, “CYCLIC PEPTIDES AS PET IMAGING AGENTS OF GRANZYME B” (priority 2022, published 2026).

T1 sequence (P10144 21-247 limits assumed): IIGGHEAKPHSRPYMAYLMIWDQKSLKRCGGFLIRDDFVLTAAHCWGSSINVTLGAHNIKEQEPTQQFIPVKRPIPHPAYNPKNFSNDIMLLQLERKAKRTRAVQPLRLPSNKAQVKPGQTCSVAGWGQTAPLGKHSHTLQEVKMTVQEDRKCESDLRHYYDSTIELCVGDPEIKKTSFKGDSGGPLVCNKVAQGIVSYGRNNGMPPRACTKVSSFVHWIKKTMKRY

B1: Compound 44a (peptide)
peptide: {CH2CO}-FNFEDQSPATWQPCG-NH2
modifications: thioether N-14
SMILES: C[C@@H]1NC(=O)[C@@H]2CCCN2C(=O)[C@H](CO)NC(=O)[C@H](CCC(N)=O)NC(=O)[C@H](CC(=O)O)NC(=O)[C@H](CCC(=O)O)NC(=O)[C@H](Cc2ccccc2)NC(=O)[C@H](CC(N)=O)NC(=O)[C@H](Cc2ccccc2)NC(=O)CSC[C@@H](C(=O)NCC(N)=O)NC(=O)[C@@H]2CCCN2C(=O)[C@H](CCC(N)=O)NC(=O)[C@H](Cc2c[nH]c3ccccc23)NC(=O)[C@H]([C@@H](C)O)NC1=O
A word on the Kd: it is a measure of binding affinity in units of concentration. A lower Kd goes with tighter binding. Take B1: the Kd was 3.5 nM.

B2: Compound 57a (peptide)
peptide: {CH2CO}-FNFEDQSPSTWQPCG-NH2
modifications: thioether N-14
SMILES: C[C@@H](O)[C@@H]1NC(=O)[C@H](CO)NC(=O)[C@@H]2CCCN2C(=O)[C@H](CO)NC(=O)[C@H](CCC(N)=O)NC(=O)[C@H](CC(=O)O)NC(=O)[C@H](CCC(=O)O)NC(=O)[C@H](Cc2ccccc2)NC(=O)[C@H](CC(N)=O)NC(=O)[C@H](Cc2ccccc2)NC(=O)CSC[C@@H](C(=O)NCC(N)=O)NC(=O)[C@@H]2CCCN2C(=O)[C@H](CCC(N)=O)NC(=O)[C@H](Cc2c[nH]c3ccccc23)NC1=O
In turn, B2 displayed a dissociation constant Kd of 5.7 nM. Against the preceding molecule, the Kd is about 1.6-fold higher.

B3: Compound 63a (peptide)
peptide: {CH2CO}-FNFEDQGPDTWQPCG-NH2
modifications: thioether N-14
SMILES: C[C@@H](O)[C@@H]1NC(=O)[C@H](CC(=O)O)NC(=O)[C@@H]2CCCN2C(=O)CNC(=O)[C@H](CCC(N)=O)NC(=O)[C@H](CC(=O)O)NC(=O)[C@H](CCC(=O)O)NC(=O)[C@H](Cc2ccccc2)NC(=O)[C@H](CC(N)=O)NC(=O)[C@H](Cc2ccccc2)NC(=O)CSC[C@@H](C(=O)NCC(N)=O)NC(=O)[C@@H]2CCCN2C(=O)[C@H](CCC(N)=O)NC(=O)[C@H](Cc2c[nH]c3ccccc23)NC1=O
Molecule B3 yielded a dissociation constant Kd of 7.1 nM.

B4: Compound 60a (peptide)
peptide: {CH2CO}-FNFEDQSPHTWQPCG-NH2
modifications: thioether N-14
SMILES: C[C@@H](O)[C@@H]1NC(=O)[C@H](Cc2c[nH]cn2)NC(=O)[C@@H]2CCCN2C(=O)[C@H](CO)NC(=O)[C@H](CCC(N)=O)NC(=O)[C@H](CC(=O)O)NC(=O)[C@H](CCC(=O)O)NC(=O)[C@H](Cc2ccccc2)NC(=O)[C@H](CC(N)=O)NC(=O)[C@H](Cc2ccccc2)NC(=O)CSC[C@@H](C(=O)NCC(N)=O)NC(=O)[C@@H]2CCCN2C(=O)[C@H](CCC(N)=O)NC(=O)[C@H](Cc2c[nH]c3ccccc23)NC1=O
Take B4: the dissociation constant (Kd) was found to be 6.1 nM.

B5: Compound 65a (peptide)
peptide: {CH2CO}-FNFEDQSPGTWQPCG-NH2
modifications: thioether N-14
SMILES: C[C@@H](O)[C@@H]1NC(=O)CNC(=O)[C@@H]2CCCN2C(=O)[C@H](CO)NC(=O)[C@H](CCC(N)=O)NC(=O)[C@H](CC(=O)O)NC(=O)[C@H](CCC(=O)O)NC(=O)[C@H](Cc2ccccc2)NC(=O)[C@H](CC(N)=O)NC(=O)[C@H](Cc2ccccc2)NC(=O)CSC[C@@H](C(=O)NCC(N)=O)NC(=O)[C@@H]2CCCN2C(=O)[C@H](CCC(N)=O)NC(=O)[C@H](Cc2c[nH]c3ccccc23)NC1=O
B5 registered a Kd of 11 nM.

B6: Compound 46a (peptide)
peptide: {CH2CO}-FNFEDQSPRTWQPCG-NH2
modifications: thioether N-14
SMILES: C[C@@H](O)[C@@H]1NC(=O)[C@H](CCCNC(=N)N)NC(=O)[C@@H]2CCCN2C(=O)[C@H](CO)NC(=O)[C@H](CCC(N)=O)NC(=O)[C@H](CC(=O)O)NC(=O)[C@H](CCC(=O)O)NC(=O)[C@H](Cc2ccccc2)NC(=O)[C@H](CC(N)=O)NC(=O)[C@H](Cc2ccccc2)NC(=O)CSC[C@@H](C(=O)NCC(N)=O)NC(=O)[C@@H]2CCCN2C(=O)[C@H](CCC(N)=O)NC(=O)[C@H](Cc2c[nH]c3ccccc23)NC1=O
Regarding B6, binding was characterised by a dissociation constant (Kd) of 3.8 nM.

B7: Compound 56a (peptide)
peptide: {CH2CO}-FNFEDQSPQTWQPCG-NH2
modifications: thioether N-14
SMILES: C[C@@H](O)[C@@H]1NC(=O)[C@H](CCC(N)=O)NC(=O)[C@@H]2CCCN2C(=O)[C@H](CO)NC(=O)[C@H](CCC(N)=O)NC(=O)[C@H](CC(=O)O)NC(=O)[C@H](CCC(=O)O)NC(=O)[C@H](Cc2ccccc2)NC(=O)[C@H](CC(N)=O)NC(=O)[C@H](Cc2ccccc2)NC(=O)CSC[C@@H](C(=O)NCC(N)=O)NC(=O)[C@@H]2CCCN2C(=O)[C@H](CCC(N)=O)NC(=O)[C@H](Cc2c[nH]c3ccccc23)NC1=O
B7 registered an equilibrium dissociation constant (Kd) of 5.5 nM.

B8: Compound 58a (peptide)
peptide: {CH2CO}-FNFEDQSPKTWQPCG-NH2
modifications: thioether N-14
SMILES: C[C@@H](O)[C@@H]1NC(=O)[C@H](CCCCN)NC(=O)[C@@H]2CCCN2C(=O)[C@H](CO)NC(=O)[C@H](CCC(N)=O)NC(=O)[C@H](CC(=O)O)NC(=O)[C@H](CCC(=O)O)NC(=O)[C@H](Cc2ccccc2)NC(=O)[C@H](CC(N)=O)NC(=O)[C@H](Cc2ccccc2)NC(=O)CSC[C@@H](C(=O)NCC(N)=O)NC(=O)[C@@H]2CCCN2C(=O)[C@H](CCC(N)=O)NC(=O)[C@H](Cc2c[nH]c3ccccc23)NC1=O
In the case of B8, binding was characterised by a dissociation constant (Kd) of 5.9 nM.

B9: Compound 68a (peptide)
peptide: {CH2CO}-FNFEDQSPDTWQ[NEtAla]CG-NH2
modifications: thioether N-14
SMILES: CCN1C(=O)[C@H](CCC(N)=O)NC(=O)[C@H](Cc2c[nH]c3ccccc23)NC(=O)[C@H]([C@@H](C)O)NC(=O)[C@H](CC(=O)O)NC(=O)[C@@H]2CCCN2C(=O)[C@H](CO)NC(=O)[C@H](CCC(N)=O)NC(=O)[C@H](CC(=O)O)NC(=O)[C@H](CCC(=O)O)NC(=O)[C@H](Cc2ccccc2)NC(=O)[C@H](CC(N)=O)NC(=O)[C@H](Cc2ccccc2)NC(=O)CSC[C@@H](C(=O)NCC(N)=O)NC(=O)[C@@H]1C
The molecule B9 gave a Kd of 15.6 nM.

B10: Compound 59a (peptide)
peptide: {CH2CO}-FNFEDQSPYTWQPCG-NH2
modifications: thioether N-14
SMILES: C[C@@H](O)[C@@H]1NC(=O)[C@H](Cc2ccc(O)cc2)NC(=O)[C@@H]2CCCN2C(=O)[C@H](CO)NC(=O)[C@H](CCC(N)=O)NC(=O)[C@H](CC(=O)O)NC(=O)[C@H](CCC(=O)O)NC(=O)[C@H](Cc2ccccc2)NC(=O)[C@H](CC(N)=O)NC(=O)[C@H](Cc2ccccc2)NC(=O)CSC[C@@H](C(=O)NCC(N)=O)NC(=O)[C@@H]2CCCN2C(=O)[C@H](CCC(N)=O)NC(=O)[C@H](Cc2c[nH]c3ccccc23)NC1=O
B10 gave a Kd of 6 nM.

B11: Compound 67a (peptide)
peptide: {CH2CO}-FNFEDQSPDTWQ[NMeA]CG-NH2
modifications: thioether N-14
SMILES: C[C@@H](O)[C@@H]1NC(=O)[C@H](CC(=O)O)NC(=O)[C@@H]2CCCN2C(=O)[C@H](CO)NC(=O)[C@H](CCC(N)=O)NC(=O)[C@H](CC(=O)O)NC(=O)[C@H](CCC(=O)O)NC(=O)[C@H](Cc2ccccc2)NC(=O)[C@H](CC(N)=O)NC(=O)[C@H](Cc2ccccc2)NC(=O)CSC[C@@H](C(=O)NCC(N)=O)NC(=O)[C@H](C)N(C)C(=O)[C@H](CCC(N)=O)NC(=O)[C@H](Cc2c[nH]c3ccccc23)NC1=O
B11 had a Kd of 12.4 nM. This Kd lies about 2.1-fold higher than the previous one.
